Laboratory results: patent US20240150441A1 (ARIZONA BOARD OF REGENTS ON BEHALF OF ARIZONA STATE …, published 2024)

Legend:
[1] = molecular target: spike (S) protein of the authentic parental Omicron variant (B.1.1.529) of SARS-CoV-2 (SARS-CoV-2, B.1.1.529 (Omicron) variant, UniProt P0DTC2 14-1273); assay: cell-based or functional assay
[2] = molecular target: spike (S) protein of the BA.4/5 SARS-CoV-2 pseudovirus (SARS-CoV-2, Omicron subvariant BA.4/5, UniProt P0DTC2 14-1273); assay: cell-based or functional assay

B1: plant-made tixagevimab (pTixagevimab) (antibody, V domains shown)
VH: QMQLVQSGPEVKKPGTSVKVSCKASGFTFMSSAVQWVRQARGQRLEWIGWIVIGSGNTNYAQKFQERVTITRDMSTSTAYMELSSLRSEDTAVYYCAAPYCSSISCNDGFDIWGQGTMVTVSS
VL: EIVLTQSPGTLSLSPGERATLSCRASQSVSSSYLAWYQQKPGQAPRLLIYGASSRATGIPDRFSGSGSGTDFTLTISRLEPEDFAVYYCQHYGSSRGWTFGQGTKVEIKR
[1]
  neutralization of authentic B.1.1.529 (Omicron) virus, foci-forming assay, IC50: 19.7 µg/mL
[2]
  neutralization of BA.4/5 pseudovirus, luciferase reporter assay, IC50: 26.7 µg/mL
